Reference: US20130071921A1 (Pfizer, published 2013)

Tests used:
[1] = molecular target: T1, recombinant rat Dkk-1 (R&D systems Cat No. 4010-DK/CF) (rat); assay: SPR BIAcore, huMabJC18 captured by goat Fab2 anti-human Fc, rat Dkk-1 injected
T1 construct: Bought
Description: For the interaction analyses of huMabJC18 with mouse or rat Dkk-1, low-levels of huMabJC18 (typically, 100-400 response units) were captured on individual flow cells by goat Fab2 anti-human Fc, which was pre-immobilized to the CM5 chip surface. A goat Fab2 anti-human Fc-saturated flow cell containing no humanized antibody served as reference channel. Mouse or rat Dkk-1 (R&D Systems) was titrated over the chip using 70.1 nM or 30.2 nM as top concentration, respectively, of a three-fold dilution series Association and dissociation phases were monitored at 100 μL/min for 90 seconds and 30 minutes, respectively. Capture surfaces for all experiments were regenerated with two 30 second pulses of […] H₃PO₄, except for the amine-coupled huMabJC18 surface used in the human Dkk-1 experiment, which was not regenerated.

[2] = molecular target: T2, recombinant mouse Dkk-1 (R&D systems Cat No. 1765-DK/CF) (mouse, UniProt O54908 32-272); assay: method not given
T2 construct: Bought
T2 sequence (looked up): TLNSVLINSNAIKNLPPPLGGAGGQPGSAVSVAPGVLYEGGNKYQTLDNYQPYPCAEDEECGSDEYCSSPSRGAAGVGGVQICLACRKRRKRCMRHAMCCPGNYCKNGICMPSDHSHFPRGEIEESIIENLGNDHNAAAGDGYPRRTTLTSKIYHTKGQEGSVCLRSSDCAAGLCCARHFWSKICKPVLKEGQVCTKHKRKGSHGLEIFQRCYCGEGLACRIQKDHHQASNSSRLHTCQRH

[3] = molecular target: T3, Recombinant human Dkk-1 (R&D Systems cat no. 1096-DK/CF), 10xHis tag at the C terminal (human, UniProt O94907 32-266); assay: method not given
T3 construct: the actual N-terminus of the purified protein is marked in bold italic after residue 30, but the mark is an image lost in the text; also called rhuDkk-1; hDkk-1
T3 sequence: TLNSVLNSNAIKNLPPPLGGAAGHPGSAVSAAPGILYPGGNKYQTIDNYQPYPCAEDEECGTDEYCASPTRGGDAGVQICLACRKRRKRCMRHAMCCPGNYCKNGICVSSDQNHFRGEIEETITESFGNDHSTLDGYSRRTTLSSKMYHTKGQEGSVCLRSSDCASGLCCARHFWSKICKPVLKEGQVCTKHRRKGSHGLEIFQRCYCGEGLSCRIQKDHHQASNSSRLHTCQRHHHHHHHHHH

[4] = molecular target: T1, recombinant rat Dkk-1 (R&D systems Cat …); assay: TMDD PK/PD model fit to rat serum data in vivo; derived as Koff/Kon
[5] = molecular target: T3, Recombinant human Dkk-1 (R&D Systems …); assay: cell-based or functional assay
[6] = molecular target: T3, Recombinant human Dkk-1 (R&D Systems …); assay: SPR BIAcore 25C, huMabJC18 IgG amine-coupled, human Dkk1 injected
Description: The affinity of huMabJC18 to human, mouse or rat Dkk1 was determined by using the BIAcore3000™ surface plasmon resonance (SPR) system (BIAcore Inc., Piscataway, N.J.), equipped with a CM5 sensor chip (BIAcore AB, Uppsala, Sweden). For the huMabJC18-human Dkk1 interaction analysis, reaction surfaces were generated by amine coupling of huMabJC18 to three flow cells (Fc2, Fc3 and Fc4). CM5 chips were activated with N-ethyl-N′-(3-dimethylaminopropyl)-carbodiinide hydrochloride (EDC) and N-hydroxysuccinimide (NHS) according to the supplier's instructions. The huMabJC18 IgG was diluted into 10 mM sodium acetate pH 4.0 and injected over the activated chip at a concentration of 30 μg/ml.
Using variable flow time across the individual chip channels, a range of antibody density was achieved: 200-800 response units (RU). The IgG and reference surfaces were then saturated with goat Fab2 anti-human Fc (Cappel 55053) to prevent nonspecific binding by Dkk-1 to the chip surface. The chip was then blocked with ethanolamine. Assays were performed at 25° C., with a BIAcore running buffer composed of HBS-EP (0.01M HEPES, pH 7.4, 0.15 NaCl, 3 mM EDTA, 0.005% Surfactant P20)+2 mg/ml BSA+2 mg/ml CM Dextran. A five membered, three fold dilution series starting at 30.9 nM purified human Dkk1 (R&D Systems) protein was injected for 1.5 min at 100 μL/min, and dissociation was monitored for […]. Kinetic association rates (kₒₙ) and dissociation rates (koff) were obtained simultaneously by fitting the data to a 1:1 Langmuir binding model (Karlsson, R. Roos, H. Fagerstam, L. Petersson, B. (1994). Methods Enzymology 6. 99-110) using the BIAevaluation program. Equilibrium dissociation constant (KD) values were calculated as koff/kₒₙ.

[7] = molecular target: T4, recombinant human Dkk3 (R&D systems Cat No. 1118-DK/CF) (human, UniProt Q9UBP4 22-350); assay: SPR BIAcore, huMabJC18 captured by goat Fab2 anti-human Fc
T4 construct: Bought; also called hDkk-3
T4 sequence (Q9UBP4 22-350 limits assumed): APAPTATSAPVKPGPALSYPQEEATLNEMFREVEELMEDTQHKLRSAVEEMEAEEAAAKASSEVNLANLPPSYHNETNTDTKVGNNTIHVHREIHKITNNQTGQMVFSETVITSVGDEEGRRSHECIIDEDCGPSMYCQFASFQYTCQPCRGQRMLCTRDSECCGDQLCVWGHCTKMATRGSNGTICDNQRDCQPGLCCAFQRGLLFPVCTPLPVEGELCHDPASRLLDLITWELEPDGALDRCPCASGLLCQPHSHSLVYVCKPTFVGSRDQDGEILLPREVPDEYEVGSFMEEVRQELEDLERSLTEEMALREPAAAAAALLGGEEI

[8] = molecular target: T3, Recombinant human Dkk-1 (R&D Systems …); assay: SPR (Table 4, headed 37C, BIAcore or ProteOn); 37 C per caption of Table 4

B1: huMabJC18, fully humanized anti-Dkk-1 monoclonal antibody (antibody, human IgG2, kappa, V domains shown)
VH: EVQLVESGGGLVQPGGSLRLSCAASGFTFSSYAISWVRQAPGKGLEWVASVSGTGLGFQTYYPDSVKGRFTISRDNAKNSLYLQMNSLRAEDTAVYYCATSLENYAFDYWGQGTTVTVSS
VL: EIVLTQSPATLSLSPGERATLSCRASESVDDFGISFINWYQQKPGQAPRLLIYAGSKQGSGIPARFSGSGSGTDFTLTISSLEPEDFAVYYCQQLKEVPPTFGGGTKVEIKR
notes: IgG2(delta a: A329S, P330S), kappa; also called huMabJC18 IgG
Kd [1]: < 100 pM | T1/2 [1]: 55.2 min | koff [1]: 0.00021 s⁻¹ | kon [1]: > 1.3e+06 M⁻¹ s⁻¹ | fold increase in affinity against the parent mouse antibody JC18 [2]: > 100 fold | fold increase in affinity against the parent mouse antibody JC18 [3]: > 100 fold | Kd [4]: 34.8 pM | IC50 in a Cell-based Functional Assay (U2OS TOPFlash luciferase; reversal of Dkk-1 inhibition of Wnt3a signaling) [5]: 1300 pM | Kd [6]: < 2 pM | T1/2 [6]: > 96.3 h | koff [6]: < 2e-06 s⁻¹ | kon [6]: > 1.3e+06 M⁻¹ s⁻¹ | binding result [7]: no binding | kon [8]: > 1.36e+06 M⁻¹ s⁻¹
